{
  "source": "patent US20020082410",
  "about": "“Insulin promoter factor, and uses related thereto” (Curis, Inc., published 2002)",
  "target": "Ipf1 (IPF1, Pdx1) (Mus musculus, UniProt P52946 SEQ:1-284)",
  "sequence (P52946 other isoform, or with tags, fused parts or gaps)": "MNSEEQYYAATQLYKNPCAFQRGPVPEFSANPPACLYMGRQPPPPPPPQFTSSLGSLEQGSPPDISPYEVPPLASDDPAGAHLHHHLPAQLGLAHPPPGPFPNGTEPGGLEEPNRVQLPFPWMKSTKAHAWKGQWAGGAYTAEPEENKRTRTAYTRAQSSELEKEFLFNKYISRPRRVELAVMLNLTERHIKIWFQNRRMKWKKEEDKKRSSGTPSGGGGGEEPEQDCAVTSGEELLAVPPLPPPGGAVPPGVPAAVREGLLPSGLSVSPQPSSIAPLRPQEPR",
  "test": "EMSA; same mobility as IPF1 from betaTC1 nuclear extract; competition with wild-type and mutant P1 sites showed same specificity as endogenous IPF1",
  "details": "tags: none; rabbit reticulocyte lysate from full-length cDNA in pGEM3",
  "procedure": "RNA prepared from the IPF1 cDNA template was translated in vitro and the DNA binding specificity of the in vitro translation product was determined using an electrophoretic mobility shift assay (EMSA) and the insulin promoter PI site as a probe (Ohisson et al., (1991) Mol Endocrin 5:897-904; see also Materials and Methods below). The in vitro translation product bound to the P1 element and migrated to the same relative position in the gel as IPF1 from the βTC1 nuclear extract.",
  "data": [
    {"binder": "P1 wild-type insulin promoter element (dsDNA) DNA 1: GCCCTTAATGGGCCAAACGGCA DNA 2: TGCCGTTTGGCCCATTAAGGGC", "values": [
      {"measurement": "binding result", "value": "binds"}
    ]}
  ]
}
